Source: patent publication US20230009582A1 (MEMO THERAPEUTICS, published 2023)

B1: monoclonal antibody 224B1 (rabbit) (antibody, V domains shown)
VH: QSVEESGGRLVTPETPLTLTCTASGFSLSSYYMSWVRQAPGKGLEWIGYIWTDGSAHYATWTKGRFTISKTSSTTVDLKITSPTTEDTATYFCVRANSGSHTYIEKFNLWGPGTLVTVSS
VL: DVVMTQTPASVEATVGGSVTIKCQASPSINDELSWYQQKPGQRPTLLIYEASALESGVPSRFKGSGSGTEFTLTIGDLECADAATYYCQCTYGSRSDISYGNTFGGGTEVVVKG
B2: comparative monoclonal antibody mAbA (WO 2017/153433), mouse-human chimera (antibody, human IgG1, kappa, V domains shown)
VH: QVQLQQPGAELVKPGSPVKLSCKASYFTFTSYWMHWVRQRPGQGLEWIGEINPSNGHTNYNEKFESKATLTVDRSSSTAYMQLSSLTSEDSAVFYCANGVESYDFDDALDYWGQGTSVTVSS
VL: DIQMTQTTSSLSASLGDRVTISCRASQDINNYLNWYQQKPDGTIKLLIYYTSRLHSGVPSRFSGSGSGTDYSLTINNLEQEDIATYFCQQGNTLPFTFGGGTKLEIKR

How the values were obtained:
[1] = molecular target: T1, Siglec-9 protein (construct not stated; antigen of Examples 3 and 4) (human, UniProt Q9Y336 18-348, limits assumed); experiment: SPR (Carterra LSA), antibody coupled to HC2000M chip, antigen at 20, 100 and 500 nM
Procedure: KD determination was performed by SPR by individually coating the antibodies to HC2000M chips via sulpho-NHS/EDC coupling chemistry. Chips were afterwards blocked with ethanolamine. Antigen was applied in one of the three different concentrations (20 nM, 100 nM and 500 nM) with a contact time of 240 s, followed by a dissociation phase of 120 s. After each antigen incubation, the bound antigen was removed from the antibodies with 10 mM glycine at pH 2.0. All kinetic parameters (kₒₙ, koff and KD) were determined using a kinetic fitting program (LSA Kinetics, Carterra).

[2] = molecular target: T2, Siglec-9-Fc (in-house production); experiment: blocking assay: Calcein-AM labelled sialic acid-displaying A549 tumour cells binding to plate-captured Siglec-9-Fc, antibody titrated, n=3
T2 construct: The entry holds the Siglec-9 part and the Fc together; also called Siglec-9-Fc protein
Procedure: FIG. 4: Titration of monoclonal antibodies (68D4 and 224B1; comparative monoclonal antibodies mAbA and 5C6 & negative control 53C3) to determine blocking the binding of sialic acid-displaying A549 tumour cells to Siglec-9. Tumour cells were fluorescently-loaded with Calcein-AM in advance to the binding experiment and binding was determined by the released fluorescence upon cell lysis. Fluorescence released in the absence of antibody was set to 100% binding. Data was fitted by three-parameter analysis in GraphPad Prism (GraphPad Software); n=3.
To analyse if anti-Siglec-9 antibodies recognize the ligand-binding domain and block the binding of Siglec-9 to its ligands, sialic acids, we performed a cell-based assay where the binding of sialic-acid expressing A549 tumour cells to Siglec-9-Fc is evaluated in ELISA. ELISA-plates were coated with 3 μg/ml Protein-A (Thermo Fisher Scientific) overnight at 4° C. Plates were blocked with PBS, 1% BSA for 1 h, and incubated with 5 μg/ml Siglec-9-Fc for 1 h at RT. Anti-Siglec-9 antibodies at different concentrations (starting at 8 μg/ml or 53 nM); were mixed 1:1 with Calcein-AM (Thermo Fisher Scientific) labeled A549 tumour cells. The mixture was added to the ELISA plate and incubated for 1 h at 4° C. After washing of the plate, cells that were bound to the plate were lysed with PBS, 1% Triton-X 100 and released fluorescence was measured at an excitation of 485 nm and emission of 535 nm with a Synergy H1 (BioTek). Data were fitted by three-parameter analysis in GraphPad Prism (GraphPad Software).

[3] = molecular target: T3, Siglec-7-Fc (in-house production); experiment: ELISA, coated Siglec-7-Fc 1 µg/ml, antibody at 5 µg/ml (33 nM), Abs 450 nm, n=3
T3 construct: The entry holds the Siglec-7 part and the Fc together; also called Siglec-7-Fc protein
Procedure: Specificity towards Siglec-5, Siglec-7, Siglec-8, Siglec-15 and Siglec-9 was assayed in enzyme-linked immunosorbent assay (ELISA) using 96 well half-area ELISA plates (Corning). Siglec-5-Fc (R&D systems), Siglec-7-Fc (in-house production, Siglec-7-Fc protein used had the following amino acid sequence:
(SEQ ID NO: 59)) […] […] […] […] […] […] […] […] […] […] […] […], Siglec-8-Fc (R&D systems), Siglec-15- Fc (R&D systems) and Siglec-9-Fc (in-house production, SEQ ID NO: 11) were coated at 1 μg/ml in 50 mM carbonate-bicarbonate buffer pH 9.6 for 15-20 hours at 4° C.
Antigens were washed away (Tecan Hydrospeed) and plates were blocked with 5% skimmed milk in phosphate-buffered saline (PBS). After washing the plates, antibodies were added at 5 μg/ml (33 nM) in 0.5% milk PBS in triplicates. Plates with antibodies were incubated for 1 hour at room temperature. Plates were washed and bound antibodies were detected by horseradish peroxidase (HRP)-labeled polyclonal anti-rabbit IgG antibody (Biolegend) or anti-human Fab fragment for mAbA (Sigma Aldrich). 3,3′,5,5′-Tetramethylbenzidine (TMB; Sigma Aldrich) development was stopped by addition of sulfuric acid and absorbance was detected at 450 nm (Tecan, CM […] MONO 200).

[4] = molecular target: T1, Siglec-9 protein (construct not stated; …); experiment: ELISA, coated Siglec-9 1 µg/ml, antibody titrated, Abs 450 nm, three-parameter fit, n=3
Procedure: FIG. 2: Binding curves of monoclonal antibodies (68D4 and 224B1; comparative monoclonal antibodies mAbA and 5C6 & negative control 53C3) towards Siglec-9 as analysed by ELISA. Binding of the monoclonal antibody to Siglec-9, as determined by measurement of the accumulated coloured product at 450 nm after stopping the reaction, is plotted against the concentration of the monoclonal antibody under evaluation.
Antibody binding affinity towards Siglec-9 was measured by a dilution series of the analysed antibodies on a fixed concentration of Siglec-9 protein in ELISA. To this end, Siglec-9 was coated at 1 μg/ml in 50 mM carbonate-bicarbonate buffer pH 9.6 for 15-20 hours at 4° C. Antigen solution was washed away (Tecan Hydrospeed) and plates were blocked with 5% skimmed milk in phosphate-buffered saline (PBS) for 1 hour at room temperature. Plates were washed and antibodies were added at concentrations of 0-420 nM. After incubation at room temperature for 1 hour plates were washed once more. Bound antibodies were detected by addition of horseradish peroxidase (HRP)-coupled secondary antibodies. Rabbit antibodies were detected by polyclonal anti-rabbit IgG antibody (Biolegend), mAbA by anti-human Fab fragment (Sigma Aldrich). After a last washing step, plates were developed by the addition of 3,3′,5,5′-Tetramethylbenzidine (TMB; Sigma Aldrich). Reaction was stopped by addition of sulfuric acid. Absorbance was detected at 450 nm (Tecan, CM […] MONO 200). Data were fitted and EC50 values were determined by three-parameter analysis in GraphPad Prism (GraphPad Software)

T1 sequence (Q9Y336 18-348 limits assumed): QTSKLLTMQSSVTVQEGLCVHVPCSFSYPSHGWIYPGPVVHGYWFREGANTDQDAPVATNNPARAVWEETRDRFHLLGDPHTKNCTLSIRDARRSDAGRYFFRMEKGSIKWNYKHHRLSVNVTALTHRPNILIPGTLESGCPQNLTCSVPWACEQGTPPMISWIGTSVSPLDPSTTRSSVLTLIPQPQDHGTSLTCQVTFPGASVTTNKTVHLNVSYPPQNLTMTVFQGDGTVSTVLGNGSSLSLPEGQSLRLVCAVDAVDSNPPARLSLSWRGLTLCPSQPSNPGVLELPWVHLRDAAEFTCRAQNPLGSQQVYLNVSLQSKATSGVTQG
T2 sequence (chain, as listed by the source limits assumed): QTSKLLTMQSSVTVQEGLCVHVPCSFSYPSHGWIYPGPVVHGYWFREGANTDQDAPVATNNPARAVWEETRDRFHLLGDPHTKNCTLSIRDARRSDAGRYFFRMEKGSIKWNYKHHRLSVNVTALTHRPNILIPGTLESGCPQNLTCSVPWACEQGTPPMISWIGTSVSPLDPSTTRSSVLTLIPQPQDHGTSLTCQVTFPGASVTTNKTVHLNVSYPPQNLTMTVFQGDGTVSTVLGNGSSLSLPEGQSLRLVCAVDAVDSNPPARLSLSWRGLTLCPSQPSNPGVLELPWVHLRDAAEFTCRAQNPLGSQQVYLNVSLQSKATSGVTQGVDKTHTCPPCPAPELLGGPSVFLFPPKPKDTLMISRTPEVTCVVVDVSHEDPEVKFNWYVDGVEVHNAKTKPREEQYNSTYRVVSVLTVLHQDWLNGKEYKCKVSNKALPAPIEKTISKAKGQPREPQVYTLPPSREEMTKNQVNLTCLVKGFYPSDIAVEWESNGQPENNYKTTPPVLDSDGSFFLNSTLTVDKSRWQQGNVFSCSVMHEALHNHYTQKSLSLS
T3 sequence (chain, as listed by the source limits assumed): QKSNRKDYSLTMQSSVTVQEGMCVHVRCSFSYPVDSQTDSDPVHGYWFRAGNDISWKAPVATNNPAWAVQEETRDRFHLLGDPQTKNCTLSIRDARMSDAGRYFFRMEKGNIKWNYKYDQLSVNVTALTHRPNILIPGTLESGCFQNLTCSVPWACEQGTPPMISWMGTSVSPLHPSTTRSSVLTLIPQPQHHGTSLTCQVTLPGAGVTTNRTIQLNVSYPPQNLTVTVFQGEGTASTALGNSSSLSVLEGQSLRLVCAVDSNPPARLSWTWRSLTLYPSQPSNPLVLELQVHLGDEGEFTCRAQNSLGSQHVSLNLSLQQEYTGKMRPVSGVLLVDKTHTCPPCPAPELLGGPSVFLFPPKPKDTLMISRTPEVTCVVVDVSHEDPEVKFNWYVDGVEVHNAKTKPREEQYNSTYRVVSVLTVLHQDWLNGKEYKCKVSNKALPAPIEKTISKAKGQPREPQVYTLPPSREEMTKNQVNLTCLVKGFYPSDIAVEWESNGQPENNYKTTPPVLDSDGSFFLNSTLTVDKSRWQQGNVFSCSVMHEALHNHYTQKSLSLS

| Binder | Kd [1] | koff [1] | kon [1] | binding result [2] | binding result [3] | EC50 [4] |
| --- | --- | --- | --- | --- | --- | --- |
| B1 | 5.1 nM | 0.0012 s⁻¹ | 230000 M⁻¹ s⁻¹ | binds | binds | 0.1 nM |
| B2 | 2.5 nM | 0.00053 s⁻¹ | 210000 M⁻¹ s⁻¹ | binds |  |  |
